The text below walks through data of PMC2875008.

Series [1] deals with T1, hRad52 (Homo sapiens, UniProt P43351 1-418).
T1 sequence: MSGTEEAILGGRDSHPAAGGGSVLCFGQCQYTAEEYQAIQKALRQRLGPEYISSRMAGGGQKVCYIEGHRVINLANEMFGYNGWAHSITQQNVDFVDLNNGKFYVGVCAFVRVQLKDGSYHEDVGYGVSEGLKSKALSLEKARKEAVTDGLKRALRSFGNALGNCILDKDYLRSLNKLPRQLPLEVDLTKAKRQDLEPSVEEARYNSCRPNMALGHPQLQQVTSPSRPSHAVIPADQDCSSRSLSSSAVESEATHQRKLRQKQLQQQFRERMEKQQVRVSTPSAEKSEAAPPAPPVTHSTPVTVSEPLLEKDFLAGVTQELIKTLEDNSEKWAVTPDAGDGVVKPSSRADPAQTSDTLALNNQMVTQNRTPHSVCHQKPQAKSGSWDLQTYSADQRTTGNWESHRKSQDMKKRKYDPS
Description: FRET titration.

In series [2] the target is T2, hRad52 1-212 (Homo sapiens, UniProt P43351 1-212).
T2 sequence: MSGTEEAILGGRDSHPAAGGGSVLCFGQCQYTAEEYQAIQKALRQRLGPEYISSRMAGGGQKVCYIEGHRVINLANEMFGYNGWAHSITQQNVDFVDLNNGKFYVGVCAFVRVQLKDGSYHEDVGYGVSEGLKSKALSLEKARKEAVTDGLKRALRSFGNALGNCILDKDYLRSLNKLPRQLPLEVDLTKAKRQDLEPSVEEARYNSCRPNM
In words: FRET titration.

Series [3] concerns the target T1, hRad52. Description: FRET titration. The source holds these as a separate data set.
Series [4] has as its target T3, hRPA (Homo sapiens, UniProt P27694;P15927;P35244 1-616;1-270;1-121). Description: FRET titration.
In series [5] the target is T3, hRPA. In words: FRET titration. The source holds these as a separate data set.
Series [6] has as its target T2, hRad52 1-212. In words: FRET titration. This is another data set of the same source.
The target of series [7] is T1, hRad52. Description: EMSA. Background: Mobility shift assays separate free from complexed probe on a gel.
Series [8] has as its target T1, hRad52. In words: FRET titration. The source holds these as a separate data set.

Where two headings read alike, the source gives them in different places.

T3 sequence (P27694 whole entry, chain 1 of 3): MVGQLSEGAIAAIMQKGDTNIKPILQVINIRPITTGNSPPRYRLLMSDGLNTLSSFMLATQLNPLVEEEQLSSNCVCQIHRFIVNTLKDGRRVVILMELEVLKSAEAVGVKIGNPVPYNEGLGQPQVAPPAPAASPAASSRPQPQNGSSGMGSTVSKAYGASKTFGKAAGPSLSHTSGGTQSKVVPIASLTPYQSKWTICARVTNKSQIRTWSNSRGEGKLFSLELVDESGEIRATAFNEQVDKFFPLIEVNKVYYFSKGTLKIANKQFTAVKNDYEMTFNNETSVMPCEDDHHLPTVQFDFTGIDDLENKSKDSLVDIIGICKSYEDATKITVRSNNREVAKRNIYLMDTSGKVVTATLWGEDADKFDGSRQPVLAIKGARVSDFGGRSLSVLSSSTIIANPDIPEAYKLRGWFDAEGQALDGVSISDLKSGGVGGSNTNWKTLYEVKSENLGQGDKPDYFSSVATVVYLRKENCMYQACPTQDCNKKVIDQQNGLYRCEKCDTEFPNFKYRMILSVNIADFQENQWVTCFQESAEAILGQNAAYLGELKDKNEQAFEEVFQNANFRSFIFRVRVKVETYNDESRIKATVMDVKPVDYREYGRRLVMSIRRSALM
T3 sequence (P15927 whole entry, chain 2 of 3): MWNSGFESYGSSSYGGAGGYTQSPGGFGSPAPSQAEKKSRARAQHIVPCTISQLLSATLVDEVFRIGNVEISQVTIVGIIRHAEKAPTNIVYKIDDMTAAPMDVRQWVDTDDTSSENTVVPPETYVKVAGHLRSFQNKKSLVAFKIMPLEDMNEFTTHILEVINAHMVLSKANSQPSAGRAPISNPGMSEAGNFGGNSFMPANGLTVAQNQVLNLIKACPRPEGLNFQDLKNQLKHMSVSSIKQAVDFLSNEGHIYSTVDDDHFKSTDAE
T3 sequence (P35244 whole entry, chain 3 of 3): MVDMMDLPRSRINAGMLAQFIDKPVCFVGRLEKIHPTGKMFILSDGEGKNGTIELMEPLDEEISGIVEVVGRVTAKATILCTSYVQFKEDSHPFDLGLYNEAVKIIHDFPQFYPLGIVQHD

Regarding TTTTTTTTTTTTTTTTTTTTTTTTTTTTTTTTTTTTTTTTTTTTTTTTTT (ssDNA) [poly(dT)-50], the binding result in series [1] was “binds”.

In the case of TTTTTTTTTTTTTTTTTTTTTTTTTTTTTTTTTTTTTTT (ssDNA) [poly(dT)-39], the binding result in series [1] is on record as “binds”.

B1: poly(dT)-60 (ssDNA)
DNA: TTTTTTTTTTTTTTTTTTTTTTTTTTTTTTTTTTTTTTTTTTTTTTTTTTTTTTTTTTTT
Regarding B1, the binding result in series [2], in series [3] and in series [4] was “binds” each time.

Take TTTTTTTTTTTTTTTTTTTTTTTTTTTTTT (ssDNA) [poly(dT)-30]: the binding result in series [5], in series [6] and in series [7] was “binds” each time.

With TTTTTTTTTTTTTTTTTTTTTT (ssDNA) [poly(dT)-22], the binding result in series [8] is on record as “binds”.
